Experimental data: patent US20260009052, “CAS12 PROTEINS AND USES THEREOF” (GUANGZHOU REFORGENE MEDICINE CO., LTD., published 2026)
Where a chain is given by its changes, count along the chain named.

What was measured:
[1] = biological target: T1, C12-279 (synthetic construct); test: cell_activity; PAM TTG; GFP reporter; details: tags: NLS
T1 chain: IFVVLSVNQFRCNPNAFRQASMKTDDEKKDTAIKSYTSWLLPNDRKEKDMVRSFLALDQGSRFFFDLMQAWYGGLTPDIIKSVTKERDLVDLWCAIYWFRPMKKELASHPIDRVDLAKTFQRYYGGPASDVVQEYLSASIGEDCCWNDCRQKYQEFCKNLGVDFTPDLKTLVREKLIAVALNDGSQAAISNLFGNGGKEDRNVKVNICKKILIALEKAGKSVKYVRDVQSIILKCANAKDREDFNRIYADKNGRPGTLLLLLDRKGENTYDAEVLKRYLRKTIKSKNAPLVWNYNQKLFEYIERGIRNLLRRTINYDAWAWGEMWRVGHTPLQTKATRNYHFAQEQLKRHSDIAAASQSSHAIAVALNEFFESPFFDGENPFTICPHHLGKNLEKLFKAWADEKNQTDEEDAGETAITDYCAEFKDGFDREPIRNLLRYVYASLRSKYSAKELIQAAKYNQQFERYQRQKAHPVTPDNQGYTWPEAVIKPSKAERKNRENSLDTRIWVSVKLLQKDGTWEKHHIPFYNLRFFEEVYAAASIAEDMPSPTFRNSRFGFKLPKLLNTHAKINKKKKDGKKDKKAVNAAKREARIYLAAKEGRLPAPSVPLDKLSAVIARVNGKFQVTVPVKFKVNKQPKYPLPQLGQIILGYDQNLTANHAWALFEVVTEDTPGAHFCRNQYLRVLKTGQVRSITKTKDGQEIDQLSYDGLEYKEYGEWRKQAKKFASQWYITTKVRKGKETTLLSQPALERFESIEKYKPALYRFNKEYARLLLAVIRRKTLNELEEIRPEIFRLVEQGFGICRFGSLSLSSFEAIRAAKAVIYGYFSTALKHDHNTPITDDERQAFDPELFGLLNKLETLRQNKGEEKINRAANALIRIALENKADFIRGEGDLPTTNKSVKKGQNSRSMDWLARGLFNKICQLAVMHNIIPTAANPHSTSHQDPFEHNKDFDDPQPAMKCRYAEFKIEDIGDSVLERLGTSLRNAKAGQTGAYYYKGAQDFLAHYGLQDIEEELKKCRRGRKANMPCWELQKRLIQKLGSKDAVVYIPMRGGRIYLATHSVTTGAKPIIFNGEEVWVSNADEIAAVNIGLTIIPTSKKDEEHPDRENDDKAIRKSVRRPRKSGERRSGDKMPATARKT

[2] = biological target: T2, C12-279 D352R/Q186R/H350R (synthetic construct, Q186R,H350R,D352R); test: cell_activity; PAM TTG
T2 chain: T1 chain with Q186R, H350R, D352R
Method: Transfection: transfection was performed 12-14 h after plating. 1.5 μL PEI (Yeasen Biotechnology, 40815ES03, Polyethylenimine Linear (PEI) MW25000) and 500 ng mutation clone plasmid were added to 100 μL Opti-MEM per well of the 24-well plate, mixed, and added to the NAAN cell line for cell transfection after placing at room temperature for 20 min. After overnight transfection, a fresh culture medium was replaced, and the culture was continued for 72 h, followed by flow cytometry. Editing efficiencies of different mutant clones were characterized by the proportion of GFP-positive cells.
Editing efficiency of some selected mutants was tested in Reporter3 cell line using the same manner as described for the NAAN reporter system, except that the cell line was changed from NAAN cell line to Reporter3 cell line.

B1: C12-279 Reporter3 sgRNA ; Reporter3 target (ssRNA ; dsDNA)
RNA: GUAAUGCGUCUCCCAUUGACGCCUCACCUCGCGACGCAAUGAUG
DNA 1: CTCACCTCGCGACGCAATGATG
DNA 2: CATCATTGCGTCGCGAGGTGAG
binding signal [1]: 1 fold of C12-279
binding signal [2]: 2.11 fold of C12-279
